Assay results taken from the supplement of paper PMC9112550, “Optimization of the antimicrobial peptide Bac7 by deep mutational scanning” (BMC Biology, 2022).

test system: Escherichia coli TOP10; assay: shrunken log2 fold change of peptide-encoding DNA abundance (4.5 h post-induction vs induction); higher = less antimicrobial activity (less host growth inhibition); details: time post-induction: 4.5 h; library: site-saturation at positions 5, 18, 19, 20
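Note: peptides expressed intracellularly from a pBAD plasmid library in pooled LB shake-flask culture, induced with 0.3% L-arabinose, DNA abundance read by NGS, three biological replicates, DESeq2 with apeglm shrinkage.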

Row | Sequence | shrunken log2 fold change
1 | RRIRHRPPRLPRPRPRPEVWPRP | 0.714
2 | RRIRHRPPRLPRPRPRPFAPPRP | -0.0777
3 | RRIRHRPPRLPRPRPRPFCDPRP | 0.128
4 | RRIRHRPPRLPRPRPRPFCFPRP | -0.215
5 | RRIRHRPPRLPRPRPRPFDTPRP | -0.178
6 | RRIRHRPPRLPRPRPRPFFCPRP | -0.16
7 | RRIRHRPPRLPRPRPRPFGYPRP | -0.133
8 | RRIRHRPPRLPRPRPRPFHEPRP | -0.2
9 | RRIRHRPPRLPRPRPRPFKRPRP | 0.0885
10 | RRIRHRPPRLPRPRPRPFKSPRP | 0.00748
11 | RRIRHRPPRLPRPRPRPFLGPRP | 0.0354
12 | RRIRHRPPRLPRPRPRPFLQPRP | 0.0325
13 | RRIRHRPPRLPRPRPRPFNPPRP | -0.17
14 | RRIRHRPPRLPRPRPRPFPRPRP | 0.0685
15 | RRIRHRPPRLPRPRPRPFQGPRP | -0.0278
16 | RRIRHRPPRLPRPRPRPFQHPRP | -0.0182
17 | RRIRHRPPRLPRPRPRPFSFPRP | -0.363
18 | RRIRHRPPRLPRPRPRPFSGPRP | 0.136
19 | RRIRHRPPRLPRPRPRPFSQPRP | -0.302
20 | RRIRHRPPRLPRPRPRPFTCPRP | -0.231
21 | RRIRHRPPRLPRPRPRPFTEPRP | 0.00246
22 | RRIRHRPPRLPRPRPRPFTTPRP | -0.0869
23 | RRIRHRPPRLPRPRPRPFWSPRP | -0.0841
24 | RRIRHRPPRLPRPRPRPGAAPRP | 0.324
25 | RRIRHRPPRLPRPRPRPGCHPRP | -0.242

Row | Sequence | shrunken log2 fold change
26 | RRIRHRPPRLPRPRPRPGCMPRP | -0.0922
27 | RRIRHRPPRLPRPRPRPGCPPRP | -0.0112
28 | RRIRHRPPRLPRPRPRPGFWPRP | 0.0409
29 | RRIRHRPPRLPRPRPRPGFYPRP | -0.363
30 | RRIRHRPPRLPRPRPRPGGAPRP | 0.311
31 | RRIRHRPPRLPRPRPRPGHFPRP | 0.0387
32 | RRIRHRPPRLPRPRPRPGHPPRP | -0.00757
33 | RRIRHRPPRLPRPRPRPGHSPRP | -0.27
34 | RRIRHRPPRLPRPRPRPGIDPRP | -0.0302
35 | RRIRHRPPRLPRPRPRPGKMPRP | -0.423
36 | RRIRHRPPRLPRPRPRPGKRPRP | -0.0157
37 | RRIRHRPPRLPRPRPRPGLWPRP | 0.0565
38 | RRIRHRPPRLPRPRPRPGMEPRP | -0.0685
39 | RRIRHRPPRLPRPRPRPGMNPRP | 0.00489
40 | RRIRHRPPRLPRPRPRPGMPPRP | 0.47
41 | RRIRHRPPRLPRPRPRPGMYPRP | -0.298
42 | RRIRHRPPRLPRPRPRPGNMPRP | -0.121
43 | RRIRHRPPRLPRPRPRPGPYPRP | -0.226
44 | RRIRHRPPRLPRPRPRPGQLPRP | 0.174
45 | RRIRHRPPRLPRPRPRPGSNPRP | 0.0117
46 | RRIRHRPPRLPRPRPRPGSRPRP | -0.168
47 | RRIRHRPPRLPRPRPRPGTAPRP | -0.275
48 | RRIRHRPPRLPRPRPRPGVNPRP | -0.000777
49 | RRIRHRPPRLPRPRPRPGVWPRP | 0.178
50 | RRIRHRPPRLPRPRPRPGWDPRP | 0.18

Row | Sequence | shrunken log2 fold change
51 | RRIRHRPPRLPRPRPRPGWMPRP | 0.0172
52 | RRIRHRPPRLPRPRPRPGWVPRP | 0.0965
53 | RRIRHRPPRLPRPRPRPHCIPRP | -0.199
54 | RRIRHRPPRLPRPRPRPHFQPRP | 0.0598
55 | RRIRHRPPRLPRPRPRPHGPPRP | 0.0873
56 | RRIRHRPPRLPRPRPRPHHGPRP | -0.755
57 | RRIRHRPPRLPRPRPRPHHYPRP | -0.533
58 | RRIRHRPPRLPRPRPRPHIFPRP | -0.308
59 | RRIRHRPPRLPRPRPRPHITPRP | -0.857
60 | RRIRHRPPRLPRPRPRPHKKPRP | -0.0741
61 | RRIRHRPPRLPRPRPRPHKMPRP | -0.266
62 | RRIRHRPPRLPRPRPRPHKNPRP | -0.263
63 | RRIRHRPPRLPRPRPRPHKVPRP | -0.299
64 | RRIRHRPPRLPRPRPRPHLIPRP | -0.097
65 | RRIRHRPPRLPRPRPRPHLMPRP | -0.177
66 | RRIRHRPPRLPRPRPRPHLTPRP | -0.0621
67 | RRIRHRPPRLPRPRPRPHMRPRP | -0.00342
68 | RRIRHRPPRLPRPRPRPHNDPRP | -0.329
69 | RRIRHRPPRLPRPRPRPHNGPRP | -0.362
70 | RRIRHRPPRLPRPRPRPHNIPRP | -0.209
71 | RRIRHRPPRLPRPRPRPHPMPRP | -0.076
72 | RRIRHRPPRLPRPRPRPHQMPRP | -0.0152
73 | RRIRHRPPRLPRPRPRPHSDPRP | 0.0468
74 | RRIRHRPPRLPRPRPRPHSNPRP | -0.167
75 | RRIRHRPPRLPRPRPRPHTRPRP | -0.174
